The source of these data is patent publication US20200308303A1 (KATHOLIEKE UNIVERSITEIT LEUVEN, published 2020).

The test has as its target ovine ADAMTS13 (sheep (ovine)). Description: cell-based or functional assay.

B1: monoclonal anti-ADAMTS13 antibody 17C7 (antibody, V domains shown)
VH: EVQLVESGGDLVKSGGSLKLSCAASGFIFSNYAMSWVRQTPEKRLEWGATITTGGFYTFYSDSVKGRFTISRDNAKNTLYLQMSSLRSEDTAMYYCARHRYDDYYALDYWGQGTSVTVSS
VL: ENVLTQSPAIMSTSPGEKVTMTCNVSSSVSYMRWFQQKSSTSPKLWIYDTSKLASGVPGRFSGSGSGHSYSLTISSMEADDVATYYCFQGNGYPLTFGAGTKLELK
modifications: Biotinylated when used as detector; the site is not stated and the letters cannot carry it.
On to B1, for which the “half maximal inhibitory concentration (IC50) of ADAMTS13 activity in ovine plasma, FRETS-VWF71 assay” value amounted to 2.4 µg/mL.
